# Patent US20120052092A1
# Legend:
# [1] = target: fHbp Variant 2 (Neisseria meningitidis); assay: SPR
# [2] = target: fHbp Variant 3 (Neisseria meningitidis); assay: SPR
# [3] = target: factor H binding protein (wild type, variant 1) (UniProt E6MV22); assay: SPR
# [4] = target: factor H binding protein (wild type, variant 1) (UniProt E6MV22); assay: SPR; sensorgram
# Sequence of fH678 (P08603 321-509): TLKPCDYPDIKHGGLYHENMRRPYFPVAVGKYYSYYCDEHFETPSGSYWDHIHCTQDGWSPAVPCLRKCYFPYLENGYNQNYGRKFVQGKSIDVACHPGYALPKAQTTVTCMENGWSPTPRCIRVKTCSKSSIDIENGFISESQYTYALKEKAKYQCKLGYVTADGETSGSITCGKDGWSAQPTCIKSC
Substance,Kd [1] [nM],Kd [2] [nM],Kd [3] [nM],Kd [4] [nM]
FH67 N339E M340S,44,165,,
fH678 (from UniProt P08603 321-509),,,5,4.69
